Measured values from US20040151721A1 (Takeda / Millennium, published 2004).
“And” between values parts separate entries of the source, which are not always exact repeats. Equal values may be shown once.

Tests used:
[1] = target: T1, human CCR2, endogenous on THP-1 cells / THP-1 cell membranes, fresh PBMC and whole blood cells (human, UniProt P41597 1-374); experiment: inhibition of 0.1 nM [125I]MCP-1 binding to fresh PBMC, filtration and scintillation counting
T1 construct: whole, on cells; Native receptor; It was used on whole cells and as a THP-1 membrane preparation; The splice form is not specified for THP-1; also called CCR2b (on blood cells)
Experimental: The amount of bound tracer was determined by separation of free from bound by filtration and scintillation counting. The data was analyzed to determine the IC50 value as for FIG. 4.
(§1) Competition binding experiments were performed by including variable concentrations of unlabeled MCP-1, 1D9 antibody, or a negative control IgG2a. Nonspecific binding was determined following the addition of a 2500-fold excess of unlabeled MCP-1. Samples were incubated for 60 minutes at room temperature, and bound and free tracer were separated by filtration through 96-well GF/B filterplates presoaked in 0.3% polyethyleneimine.

[2] = target: T1, human CCR2, endogenous on THP-1 cells / …; experiment: inhibition of 0.1 nM [125I]MCP-1 binding to THP-1 cell membranes, filtration and scintillation counting
Experimental: The amount of bound tracer was determined by separation of free from bound by filtration and scintillation counting. The data was analyzed to determine the IC50 value by non-linear regression using a 4-parameter logistic equation with KaleidaGraph software.
as §1

[3] = target: T2, CCR1 expressed on L1/2 transfectants (UniProt P32246 1-355, limits assumed); experiment: flow cytometry on L1/2 transfectants, hybridoma supernatant
T2 construct: whole, on cells; also called CCR1 transfectants
T2 sequence (looked up): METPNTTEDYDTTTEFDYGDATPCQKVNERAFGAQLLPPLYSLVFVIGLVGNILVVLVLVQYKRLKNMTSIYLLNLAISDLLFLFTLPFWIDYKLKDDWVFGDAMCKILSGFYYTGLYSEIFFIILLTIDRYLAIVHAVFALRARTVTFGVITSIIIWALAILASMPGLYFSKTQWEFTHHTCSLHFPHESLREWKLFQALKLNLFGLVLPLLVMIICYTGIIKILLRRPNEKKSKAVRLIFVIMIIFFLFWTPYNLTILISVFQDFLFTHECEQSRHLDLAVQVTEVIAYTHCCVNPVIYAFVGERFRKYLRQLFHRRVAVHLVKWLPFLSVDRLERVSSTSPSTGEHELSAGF
Experimental: (§2) For the staining of cultured transfectant cell lines 0.5×10^6 cells in 50 μl were resuspended in PBS+1% FCS in a 96 well polystyrene V-bottom plate. 50 μl of primary antibody supernatants or HT medium (negative control) were added, and the samples were incubated at 4° C. for 30 min. 100 μl of PBS were added and the cells were pelleted by centrifugation and washed once with PBS. The pellet was resuspended in 100 μl PBS+1% FCS containing FITC-conjugated goat anti-mouse IgG antibody (a 1:250 dilution) and incubated for thirty minutes at 4° C. in the dark. The cells were washed twice with PBS, resuspended in PBS, and analyzed by flow cytrometry with a FacScan cytometer using the CellQuest software (Becton-Dickenson) Cells were fixed with PBS/1% formaldehyde if they were not to be analyzed the same day. Monoclonal antibodies 1D9 and 8G2 stain CCR2 transfectants but not CCR1 or CCR5 transfectants (FIG. 1).

[4] = target: T3, CCR5 expressed on L1/2 transfectants (UniProt P51681 1-352, limits assumed); experiment: as above
T3 construct: whole, on cells; also called CCR5 transfectants
Experimental: as §2

T1 sequence (P41597 whole entry, canonical isoform): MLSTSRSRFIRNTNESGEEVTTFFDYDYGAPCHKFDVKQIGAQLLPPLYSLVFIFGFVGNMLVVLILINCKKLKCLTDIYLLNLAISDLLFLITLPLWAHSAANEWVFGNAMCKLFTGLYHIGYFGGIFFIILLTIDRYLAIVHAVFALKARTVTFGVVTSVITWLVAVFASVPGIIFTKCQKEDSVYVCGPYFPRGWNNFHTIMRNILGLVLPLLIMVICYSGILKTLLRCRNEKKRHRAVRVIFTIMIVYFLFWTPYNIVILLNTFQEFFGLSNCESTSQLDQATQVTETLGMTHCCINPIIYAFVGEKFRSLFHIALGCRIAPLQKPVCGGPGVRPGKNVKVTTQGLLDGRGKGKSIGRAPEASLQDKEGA
T3 sequence (P51681 whole entry): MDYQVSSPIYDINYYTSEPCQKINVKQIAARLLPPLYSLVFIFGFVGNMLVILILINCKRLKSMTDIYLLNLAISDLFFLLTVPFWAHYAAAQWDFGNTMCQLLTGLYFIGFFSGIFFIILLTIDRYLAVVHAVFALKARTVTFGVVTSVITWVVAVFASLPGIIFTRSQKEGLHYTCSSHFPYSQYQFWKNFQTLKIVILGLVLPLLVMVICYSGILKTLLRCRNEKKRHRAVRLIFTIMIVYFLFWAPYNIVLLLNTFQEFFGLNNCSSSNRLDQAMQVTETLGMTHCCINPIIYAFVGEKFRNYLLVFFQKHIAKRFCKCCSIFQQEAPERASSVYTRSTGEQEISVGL

B1: murine monoclonal antibody LS132.1D9 (1D9) (antibody, V domains shown)
VH: EVQLVESGGGLVQPKGSLKLSCAASGFSFNAYAMNWVRQAPGKGLEWVARIRTKNNNYATYYADSVKDRYTISRDDSESMLFLQMNNLKTEDTAMYYCVTFYGNGVWGTGTTVTVSS
VL: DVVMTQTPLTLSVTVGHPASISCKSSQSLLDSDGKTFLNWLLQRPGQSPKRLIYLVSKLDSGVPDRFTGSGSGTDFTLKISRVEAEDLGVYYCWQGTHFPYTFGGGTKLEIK
notes: Mouse hybridoma antibody with a kappa light chain; The controls used were murine IgG2a and an 'isotype-matched' antibody, so IgG2a is implied; It was used as hybridoma supernatant in FACS; also called mAb 1D9; mus-1D9
IC50 [1]: 0.04 µg/mL and ~0.2 nM | IC50 [2]: ~0.004 µg/mL and ~0.02 nM | binding result [3]: no binding | binding result [4]: no binding
